This is an account of results in patent US20090004675A1, “Method of Identifying Compounds for Bacterial Growth Modulation” (priority 2004, published 2009).

The target in assay [1] is E. coli DNA polymerase III replicase (Escherichia coli, UniProt P0A988). Conditions: primed M13mp18 ssDNA coated with SSB. As to the method: Assays were performed using primed M13mp18 ssDNA coated with SSB as substrate. Each reaction was 25 μl and contained 72 ng primed M13mp18 ssDNA, 1 μg SSB, 0.1 mM MgCl2, 20 mM TrisHCl (pH 7.5), 0.1 mM EDTA, 5 mM DTT, 40 μg/ml BSA, 4% glycerol, […], 2 mM ATP, 60 μM each of dCTP, dATP, dGTP and 20 μM α^32-P dTTP. Replicases consisted of the following for each E. coli, S. pyogenes, and S. aureus: 50 ng Pol III core (E. coli) or Pol C (S. pyogenes and S. aureus), 200 ng τ, 20 ng δδ′ and 40 ng β. Peptides, when present, were added to the indicated concentration. Reactions were assembled on ice in the absence of the polymerase, then shifted to 37° C. for 3 min before initiating synthesis by addition of the polymerase. Reactions were incubated a further 3 min prior to quenching and quantitation of synthesis.

In another assay the test system is S. pyogenes β. Briefly: Binding of rhodamine-labeled polymerase C-terminal peptides to β clamp. Also noted: species or system Streptococcus pyogenes. To be noted: β titrated in. The procedure: This assay has also been examined using Streptococcus pyogenes β and rhodamine labeled peptides corresponding to C-terminal residues of Streptococcus pyogenes Pol C and E. coli Pol III. […] The C-terminal peptide corresponding to Staphylococcus aureus Pol C was also tested for binding to these β clamps (FIG. 1C).

The target of another assay is E. coli β clamp (Escherichia coli, UniProt P0A988). To be noted: E. coli β labeled with Oregon Green or rhodamine-labeled peptide; Kd only in FIG. 1A. The source says: The assays corresponding to the data in the Table of FIG. 1A, use E. coli β labeled with an Oregon Green fluorophore. Peptides of various polymerases were titrated into the labeled β, and the Kd values were obtained from the resulting fluorescent intensity changes. All other plots utilize rhodamine-labeled polymerase peptide from E. coli α (FIG. 1A), S. pyogenes Pol C (FIG. 1B), S. aureus Pol C (FIG. 1C). β clamp from the organisms indicated are titrated into the fluorescent peptide.
A rhodamine-labeled 20 mer peptide corresponds to the sequence of the C-terminal 20 residues of E. coli Pol III α subunit. […] A plot of the fluorescence change with beta concentration provides a Kd value for the interaction between these molecules (FIG. 1A).

For assay [2], the target named is T1, S. aureus Pol C holoenzyme (Staphylococcus aureus, UniProt P0A024).
T1 construct: made in house
T1 sequence (P0A024 1-377): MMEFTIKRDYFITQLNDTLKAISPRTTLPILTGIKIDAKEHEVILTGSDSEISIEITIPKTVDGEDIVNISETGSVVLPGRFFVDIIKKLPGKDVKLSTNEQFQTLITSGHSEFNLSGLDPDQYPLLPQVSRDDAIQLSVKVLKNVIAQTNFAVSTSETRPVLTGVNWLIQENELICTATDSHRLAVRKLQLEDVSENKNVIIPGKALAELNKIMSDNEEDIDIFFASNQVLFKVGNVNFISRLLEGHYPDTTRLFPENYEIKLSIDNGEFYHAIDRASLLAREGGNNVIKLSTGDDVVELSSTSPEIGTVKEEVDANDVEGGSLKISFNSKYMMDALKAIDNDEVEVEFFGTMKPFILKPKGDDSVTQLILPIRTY
Briefly: Replicase DNA synthesis assay on primed M13mp18 ssDNA, with peptides. The class given is biochemical. Conditions: primed M13mp18 ssDNA coated with SSB. The procedure:
(§1) Peptides, when present, were added to the indicated concentration.

Assay [3] has as its system S. pyogenes PolC holoenzyme. Described as above. The class given is biochemical, Streptococcus pyogenes. Conditions: primed M13mp18 ssDNA coated with SSB. The procedure:
as §1

Sequence of E. coli DNA polymerase III replicase (P0A988 whole entry): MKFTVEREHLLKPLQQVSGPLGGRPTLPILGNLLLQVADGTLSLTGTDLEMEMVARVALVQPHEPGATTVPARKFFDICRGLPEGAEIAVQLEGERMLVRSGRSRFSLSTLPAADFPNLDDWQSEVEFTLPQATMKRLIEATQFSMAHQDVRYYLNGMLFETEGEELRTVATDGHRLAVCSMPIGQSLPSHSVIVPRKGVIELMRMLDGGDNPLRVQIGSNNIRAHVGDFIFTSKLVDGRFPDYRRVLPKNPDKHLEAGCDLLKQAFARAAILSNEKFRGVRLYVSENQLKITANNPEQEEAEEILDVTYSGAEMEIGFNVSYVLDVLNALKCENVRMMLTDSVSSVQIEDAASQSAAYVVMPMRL
Sequence of E. coli β clamp (P0A988 whole entry): as above

For the substance “S. aureus Pol C peptide: C-terminal peptide of Staphylococcus aureus Pol C; DELGSLPNLPDKAQLSIFDM (SEQ ID NO: 13) (listed as Staphylococcus aureus)”, the “inhibition of DNA synthesis by E. coli DNA polymerase III replicase” value in assay [1] was “inhibit DNA synthesis”. In addition, the “binding of peptide to S. pyogenes β” value in the assay with S. pyogenes β is “bound”. Further, the “binding of peptide to E. coli β clamp” value with E. coli β clamp was “binds”. In addition, the “inhibition of DNA synthesis by S. aureus Pol C holoenzyme” value in assay [2] is listed as “inhibit DNA synthesis”. Besides, the “inhibition of DNA synthesis by S. pyogenes PolC holoenzyme” value in assay [3] was “inhibit DNA synthesis”.

As to “S. pyogenes Pol C peptide: C-terminal residues of Streptococcus pyogenes Pol C; DEMGILGNMPEDNQLSLFDDFF (SEQ ID NO: 15) (Streptococcus pyogenes)”, in assay [1], the “inhibition of DNA synthesis by E. coli DNA polymerase III replicase” value is listed as “inhibit DNA synthesis”. In addition, in the assay with S. pyogenes β, the “binding of peptide to S. pyogenes β” value was “bound”. For the same substance, the “binding of peptide to E. coli β clamp” value in the assay with E. coli β clamp was “binds”. In assay [2], the “inhibition of DNA synthesis by S. aureus Pol C holoenzyme” value was “inhibit DNA synthesis”. Also, the “inhibition of DNA synthesis by S. pyogenes PolC holoenzyme” value in assay [3] is recorded as “inhibit DNA synthesis”.
